In PMC4586593 one finds Kd data, which are given here for one substance.

pKd: −log10 of the molar value. Read-outs that look alike come from different tables or passages of the source.

As usually defined, the pKd is −log10 of the Kd, conventionally taken in molar units. Lower therefore signals a high Kd.

The target of test [1] is unphosphorylated smooth muscle myosin (SMM) filaments stabilized against ATP-induced disassembly (UniProt P10587).
Test [2] has the same target. This is another data set of the same source.

In the case of “smooth muscle MLCK, short isoform, from chicken gizzard, unlabeled (enzyme)”, the pKd is 5.89 in test [1] and 5.82 in test [2].
